# ± gives the standard deviation of the averaged measurements.
# System: ATP
# Experiment: switch fluorescence ratio, 500 uM ATP over buffer (Cy3 cluster intensity, sum of 5 cycles each) (fold (ratio)); higher = stronger signal-on switching upon ATP binding; sequences stand for … in TCGTCGGCAGCGTCAGATGTGTATAAGAGACAGTTTTTTTTTTTTTTTTTTTTTTTTT…TC
# Details: aptamer strand: ATP DNA aptamer (quencher-CACCTGGGGGAGTATTGCGGAGGAAGG + anchor), 100 nM annealed; ATP concentration: 500 uM
# Outline: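 Cy3-labelled switching-strand clusters on a modified Illumina MiSeq flow-cell were annealed to 100 nM quencher-labelled ATP aptamer, imaged in selection buffer, then imaged after 15 min with 500 uM ATP at 22 °C. Five buffer/ATP cycles ran, with NaOH stripping and re-annealing between them. The fluorescence ratio is summed target-cycle over summed buffer-cycle Cy3 intensity per cluster, averaged per switch-domain sequence. Clusters outside 100-1000 RFU were excluded.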
# 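Note: ATP exposure 15 min at 22 °C before imaging.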
row,Sequence,switch fluorescence ratio
1,TTGCGGTGCG,1.01 ± 0.062
2,TTGCGTAGCA,0.977 ± 0.02
3,TTGCGTAGGC,0.994 ± 0.034
4,TTGCGTAGTT,1.01 ± 0.029
5,TTGCGTGTTG,1.01 ± 0.019
6,TTGCGTTGTT,0.9695 ± 0.0043
7,TTGCTAAAAA,1.04 ± 0.03
8,TTGCTAAAGG,0.964 ± 0.016
9,TTGCTAAATG,1 ± 0.013
10,TTGCTAAGCG,1.02 ± 0.012
11,TTGCTACCAC,1.07 ± 0.036
12,TTGCTCATAT,1.02 ± 0.049
13,TTGCTCCTTT,1.02 ± 0.03
14,TTGCTCTTTG,1.0058 ± 0.00073
15,TTGCTGAGAC,1.24 ± 0.3
16,TTGCTGAGCC,0.96 ± 0.024
17,TTGCTGGGAT,1.02 ± 0.012
18,TTGCTGGTCA,0.9897 ± 0.0042
19,TTGCTTGAGA,0.996 ± 0.028
20,TTGGAAACAG,1 ± 0.014
21,TTGGAAGAGT,0.9941 ± 0.0083
22,TTGGAAGCTT,1.23 ± 0.22
23,TTGGAAGGTT,1.32 ± 0.42
24,TTGGAATTTT,1.03 ± 0.031
25,TTGGACGGGA,1.29 ± 0.47
26,TTGGACTAAG,0.99 ± 0.044

row,Sequence,switch fluorescence ratio
1,TTGGAGCACT,1.38 ± 0.075
2,TTGGAGGAAC,1.07 ± 0.12
3,TTGGAGGTTC,0.99 ± 0.063
4,TTGGAGTGCT,1.04 ± 0.045
5,TTGGAGTGGG,0.987 ± 0.051
6,TTGGATAGGG,1.04 ± 0.067
7,TTGGATGAGC,1.03 ± 0.07
8,TTGGATGGGT,0.959 ± 0.05
9,TTGGATGTCT,1.008 ± 0.0072
10,TTGGATTGGG,1.02 ± 0.064
11,TTGGCACGAT,1.012 ± 0.0011
12,TTGGCAGTCG,0.998 ± 0.02
13,TTGGCAGTTA,1.03 ± 0.061
14,TTGGCATGGC,1.04 ± 0.026
15,TTGGCATGTC,1.06 ± 0.041
16,TTGGCATTTA,1.034 ± 0.0054
17,TTGGCCCCCA,1.01 ± 0.017
18,TTGGCCGCGA,2.1 ± 0.066
19,TTGGCCGTAC,1.03 ± 0.029
20,TTGGCGGGCG,0.979 ± 0.034
21,TTGGCGGGTG,1.04 ± 0.041
22,TTGGCTTGTC,0.954 ± 0.019
23,TTGGCTTTGG,0.967 ± 0.0056
24,TTGGGAAACT,1.15 ± 0.24
25,TTGGGAATCA,0.988 ± 0.026
26,TTGGGACGGA,1.01 ± 0.034

row,Sequence,switch fluorescence ratio
1,TTGGGACGGG,0.994 ± 0.022
2,TTGGGAGATG,1.1 ± 0.13
3,TTGGGAGCTT,1.01 ± 0.048
4,TTGGGAGGGA,1 ± 0.038
5,TTGGGAGGGG,1.04 ± 0.083
6,TTGGGAGTTG,0.984 ± 0.037
7,TTGGGATATG,1.02 ± 0.065
8,TTGGGCACGG,0.991 ± 0.0052
9,TTGGGCAGTA,0.978 ± 0.057
10,TTGGGCATCA,1 ± 0.065
11,TTGGGCCGCT,0.974 ± 0.1
12,TTGGGCCTGG,0.9806 ± 0.0061
13,TTGGGCTGGT,0.962 ± 0.035
14,TTGGGCTTGA,1.01 ± 0.056
15,TTGGGCTTGC,1.04 ± 0.029
16,TTGGGGAAAG,0.986 ± 0.038
17,TTGGGGACCC,1.03 ± 0.035
18,TTGGGGACTC,1 ± 0.026
19,TTGGGGAGAC,1.07 ± 0.061
20,TTGGGGATGT,1 ± 0.031
21,TTGGGGATTC,0.991 ± 0.02
22,TTGGGGATTG,0.989 ± 0.021
23,TTGGGGCACA,1.01 ± 0.031
24,TTGGGGCCAT,0.999 ± 0.029
25,TTGGGGCCCG,1.01 ± 0.082
26,TTGGGGCCTC,1 ± 0.033

row,Sequence,switch fluorescence ratio
1,TTGGGGGAAG,0.981 ± 0.026
2,TTGGGGGACA,1.01 ± 0.014
3,TTGGGGGCTT,1 ± 0.039
4,TTGGGGGGCC,1.01 ± 0.031
5,TTGGGGGGCG,1.01 ± 0.073
6,TTGGGGGTTA,1.02 ± 0.019
7,TTGGGGTAAC,1.009 ± 0.01
8,TTGGGGTGAA,1.1 ± 0.14
9,TTGGGGTGGG,1.01 ± 0.046
10,TTGGGGTGTG,1.01 ± 0.017
11,TTGGGGTTCG,0.98 ± 0.029
12,TTGGGTAAAT,0.985 ± 0.031
13,TTGGGTAAGC,0.994 ± 0.066
14,TTGGGTAAGG,0.993 ± 0.029
15,TTGGGTAATT,0.998 ± 0.022
16,TTGGGTACGA,0.997 ± 0.0043
17,TTGGGTCAGA,0.981 ± 0.018
18,TTGGGTGAAC,1.002 ± 0.0088
19,TTGGGTGAGG,0.98 ± 0.028
20,TTGGGTGTTT,1.06 ± 0.035
21,TTGGGTTCTC,0.983 ± 0.037
22,TTGGGTTTCG,1.01 ± 0.042
23,TTGGGTTTTC,1.03 ± 0.065
24,TTGGTAAGCG,1.02 ± 0.051
25,TTGGTAAGGG,1.03 ± 0.011
26,TTGGTACTGT,1.02 ± 0.014

row,Sequence,switch fluorescence ratio
1,TTGGTCCCGA,1.001 ± 0.0014
2,TTGGTCGCCC,1.08 ± 0.17
3,TTGGTCGTTT,0.956 ± 0.038
4,TTGGTCTGGT,0.973 ± 0.024
5,TTGGTGACGT,1.03 ± 0.022
6,TTGGTGGGTT,0.994 ± 0.04
7,TTGGTGGTCT,1.05 ± 0.075
8,TTGGTGGTGG,1.01 ± 0.053
9,TTGGTTCACC,0.955 ± 0.029
10,TTGGTTGAAA,1.01 ± 0.013
11,TTGGTTGAAG,1.02 ± 0.013
12,TTGGTTGACA,0.9641 ± 0.0094
13,TTGGTTGCAA,0.983 ± 0.029
14,TTGGTTGGCG,0.992 ± 0.041
15,TTGGTTGGGA,1 ± 0.042
16,TTGGTTGGGG,1 ± 0.03
17,TTGGTTGTTA,1.01 ± 0.041
18,TTGGTTTACC,0.957 ± 0.011
19,TTGGTTTATG,0.993 ± 0.045
20,TTGGTTTCAT,1.009 ± 0.0094
21,TTGGTTTGTA,1 ± 0.065
22,TTGGTTTTCG,0.973 ± 0.026
23,TTGGTTTTTT,1 ± 0.034
24,TTGTAAATCG,0.975 ± 0.02
25,TTGTAAATT,1.02 ± 0.043
26,TTGTAAATTT,1.012 ± 0.01

row,Sequence,switch fluorescence ratio
1,TTGTAAGGAT,1.02 ± 0.013
2,TTGTAATGTT,1.01 ± 0.051
3,TTGTAATTGT,0.995 ± 0.021
4,TTGTAATTTA,1.01 ± 0.019
5,TTGTACATCC,1.03 ± 0.013
6,TTGTACGCCA,1.31 ± 0.19
7,TTGTAGACAG,1.013 ± 0.0088
8,TTGTAGCGGT,1.05 ± 0.034
9,TTGTAGTGGG,1.02 ± 0.048
10,TTGTAGTTAC,1.034 ± 0.0049
11,TTGTATAGTG,0.933 ± 0.033
12,TTGTATATGT,1.0292 ± 2.1e-05
13,TTGTATCACG,1.03 ± 0.059
14,TTGTATGATT,1.013 ± 0.0075
15,TTGTATGGAC,1.019 ± 0.0076
16,TTGTATGGCA,0.973 ± 0.027
17,TTGTATGTTA,1 ± 0.017
18,TTGTCAATGT,1.06 ± 0.053
19,TTGTCACAGC,1.03 ± 0.022
20,TTGTCAGGGT,0.995 ± 0.026
21,TTGTCATGAT,1.006 ± 0.006
22,TTGTCGCGTA,1.01 ± 0.07
23,TTGTCGGTTT,0.983 ± 0.014
